This passage reports EC50 of the in vitro ADCC assay (luminescence, Bio-Glo reagent; BT-474 target cells, Jurkat cells) results from article PMC11500988.

The test addresses human FcγRIIIa-V158 (CD16a, V158 allotype) (human) (UniProt P08637).

Turning to “P-TMab (trastuzumab produced by the glycoengineered rice cell line PhytoRice, line PHYTO101) (antibody)”, the EC50 of the in vitro ADCC assay (luminescence, Bio-Glo reagent; BT-474 target cells, Jurkat cells) was 0.017 µg/mL.
